Target: SARS-CoV-2 spike protein (SARS-CoV-2, UniProt P0DTC2)
Assay: spectroscopic ellipsometry, immobilised aptamer; PBS (137 mM NaCl, 2.7 mM KCl, 10 mM phosphate, pH 7.4); […]
Details: protein: commercial; chain copies: 3

B1: spike aptamer (ssDNA)
DNA: CAGCACCGACCTTGTGCTTTGGGAGTGCTGGTCCAAGGGCGTTAATGGACA
modifications: 5' amine
  binding result: binds
